The source of these data is patent US20170138958A1.

Test [1] addresses Fr. 3 antigen (C-terminal region, zinc finger region, positions 294-449 of WT1) (human) (UniProt P19544). Briefly: antigen inhibition ELISA on immobilised Fr. 3; antibody whose binding is inhibited: serum sample No. 7. For orientation: An ELISA detects its analyte on a solid surface through an enzyme-linked reagent.
Test [2] has the same target. As to the kind of experiment: antigen inhibition ELISA on immobilised Fr. 3; antibody whose binding is inhibited: serum sample No. 3.
For test [3] the target is unchanged. As to the kind of experiment: antigen inhibition ELISA on immobilised Fr. 3; antibody whose binding is inhibited: C-19 (PoAb).
The target is the same in test [4]. As to the kind of experiment: antigen inhibition ELISA on immobilised Fr. 3; antibody whose binding is inhibited: serum sample No. 9.

Sequence of UniProt P19544 (P19544 294-449): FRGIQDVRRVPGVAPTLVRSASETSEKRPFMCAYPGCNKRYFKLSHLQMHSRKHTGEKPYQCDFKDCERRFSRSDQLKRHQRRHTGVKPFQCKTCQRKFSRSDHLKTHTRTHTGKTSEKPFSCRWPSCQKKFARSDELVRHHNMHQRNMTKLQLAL

For “Fr. 2 antigen (hWT1 Fr. 2, central region, positions 181-324 of WT1) (from UniProt P19544 181-324)”, the percent inhibition in test [1] stood at 20%; in test [2] it was 70%; in test [3], 50%.
On to “Fr. 1 antigen (recombinant hWT1 Fr. 1, N-terminal region, positions 1-182 of WT1) (from UniProt P19544 1-182)”, for which the percent inhibition was 10% in test [1], 40% in test [4] and 25% in test [3].
